# Experimental data: patent US9580512
# Molecular target: CD55 (UniProt P08174)
# Assay: cell-based or functional assay
# Chain of UniProt P08174 (P08174 35-353 limits assumed): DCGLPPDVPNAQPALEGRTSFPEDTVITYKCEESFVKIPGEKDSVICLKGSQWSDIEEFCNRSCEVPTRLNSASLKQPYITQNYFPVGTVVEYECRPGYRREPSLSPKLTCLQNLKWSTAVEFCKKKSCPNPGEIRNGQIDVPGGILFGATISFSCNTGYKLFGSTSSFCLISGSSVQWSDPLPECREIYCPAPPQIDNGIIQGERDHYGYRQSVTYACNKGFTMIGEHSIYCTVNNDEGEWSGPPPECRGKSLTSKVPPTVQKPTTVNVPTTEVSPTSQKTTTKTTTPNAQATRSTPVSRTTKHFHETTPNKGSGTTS
"C3b deposition on 791T cells, mean linear fluorescence (MLF)",increase in C3b deposition,Substance
350 MLF,,BRIC 216 (antibody)
520 MLF,250%,monoclonal antibody 791T/36
200 MLF,,BRIC 220 (antibody)
